Target: Pragmin 906-1368 (Pragmin C) (Rattus norvegicus) (UniProt D3ZMK9)
Experiment: MALLS + DLS + SAXS

## Pragmin 906-1368 (Pragmin C) (from UniProt D3ZMK9 906-1368) (domain or fragment)
  stoichiometry N: 2

— article doi:10.1101/218669
